Assay results taken from patent US20210206825A1 (published 2021).

Molecular target: human EGFR on cells (human, UniProt P00533 25-1210)
Test: cell-based or functional assay

Row | Binder | pEGFR inhibition in H292 cells (IC50) [nM]
1 | ECB95 (designed binder, not shown: small tags and cut ends) MLPAPKNLVVSEVTEDSARLSWDDPWAFYESFLIQYQESEKVGEAIVLTVPGSERSYDLTGLKPGTEYTVSIYGVHNVYKDTNIRGLPLSAIFTTAPAPAPAPAPLPAPKNLVVSRVTEDSARLSWTAPDAAFDSFWIRYFEFVGSGEAIVLTVPGSERSYDLTGLKPGTEYVVNILGVKGGSISPPLSAIFTT | 13.6
2 | ECB15 (designed binder, not shown: small tags and cut ends) MLPAPKNLVVSEVTEDSARLSWDDPWAFYESFLIQYQESEKVGEAIVLTVPGSERSYDLTGLKPGTEYTVSIYGVHNVYKDTNMRGLPLSAIFTTAPAPAPAPAPLPAPKNLVVSRVTEDSARLSWTAPDAAFDSFWIRYFEFLGSGEAIVLTVPGSERSYDLTGLKPGTEYVVNIMGVKGGKISPPLSAIFTT | 4.2
3 | ECB94 (designed binder, not shown: small tags and cut ends) MLPAPKNLVVSEVTEDSARLSWDDPWAFYESFLIQYQESEKVGEAIVLTVPGSERSYDLTGLKPGTEYTVSIYGVHNVYKDTNIRGLPLSAIFTTAPAPAPAPAPLPAPKNLVVSRVTEDSARLSWTAPDAAFDSFWIRYFEFLGSGEAIVLTVPGSERSYDLTGLKPGTEYVVNILGVKGGKISPPLSAIFTT | 5.1
4 | ECB96 (designed binder, not shown: small tags and cut ends) MLPAPKNLVVSEVTEDSARLSWDDPWAFYESFLIQYQESEKVGEAIVLTVPGSERSYDLTGLKPGTEYTVSIYGVHNVYKDTNIRGLPLSAIFTTAPAPAPAPAPLPAPKNLVVSRVTEDSARLSWTAPDAAFDSFWIRYFEFVSKGDAIVLTVPGSERSYDLTGLKPGTEYVVNILGVKGGSISPPLSAIFTT | 24.7
5 | ECB97 (designed binder, not shown: small tags and cut ends) MLPAPKNLVVSEVTEDSARLSWDDPWAFYESFLIQYQESEKVGEAIVLTVPGSERSYDLTGLKPGTEYTVSIYGVHNVYKDTNIRGLPLSAIFTTAPAPAPAPAPLPAPKNLVVSRVTEDSARLSWTAPDAAFDSFWIRYFEFLGSGEAIVLTVPGSERSYDLTGLKPGTEYVVNILSVKGGSISPPLSAIFTT | 16.6
6 | ECB106 (designed binder, not shown: small tags and cut ends) MLPAPKNLVVSEVTEDSARLSWDDPHAFYESFLIQYQESEKVGEAIVLTVPGSERSYDLTGLKPGTEYTVSIYGVHNVYKDTNIRGLPLSAIFTTAPAPAPAPAPLPAPKNLVVSRVTEDSARLSWTAPDAAFDSFWIRYFEFLGSGEAIVLTVPGSERSYDLTGLKPGTEYVVNILGVKGGKISPPLSAIFTT | 367
7 | ECB107 (designed binder, not shown: small tags and cut ends) MLPAPKNLVVSEVTEDSARLSWDDPHAFYESFLIQYQESEKVGEAIVLTVPGSERSYDLTGLKPGTEYTVSIYGVHNVYKDTNIRGLPLSAIFTTAPAPAPAPAPLPAPKNLVVSRVTEDSARLSWTAPDAAFDSFWIRYFEFVGSGEAIVLTVPGSERSYDLTGLKPGTEYVVNILGVKGGSISPPLSAIFTT | 812
8 | ECB108 (designed binder, not shown: small tags and cut ends) MLPAPKNLVVSEVTEDSARLSWDDPHAFYESFLIQYQESEKVGEAIVLTVPGSERSYDLTGLKPGTEYTVSIYGVHNVYKDTNIRGLPLSAIFTTAPAPAPAPAPLPAPKNLVVSRVTEDSARLSWTAPDAAFDSFWIRYFEFVSKGDAIVLTVPGSERSYDLTGLKPGTEYVVNILGVKGGSISPPLSAIFTT | 814
9 | ECB109 (designed binder, not shown: small tags and cut ends) MLPAPKNLVVSEVTEDSARLSWDDPHAFYESFLIQYQESEKVGEAIVLTVPGSERSYDLTGLKPGTEYTVSIYGVHNVYKDTNIRGLPLSAIFTTAPAPAPAPAPLPAPKNLVVSRVTEDSARLSWTAPDAAFDSFWIRYFEFLGSGEAIVLTVPGSERSYDLTGLKPGTEYVVNILSVKGGSISPPLSAIFTT | 432

Molecular target: T1, recombinant human c-Met Fc chimera (human, UniProt P08581 16-932)
T1 construct: also called c-Met-Fc fusion protein; c-Met extracellular domain; not shown: Fc
Test: SPR
Excerpt: Serine was chosen to decrease the hydrophobicity of the resulting mutants. […] Fold change indicates fold change of the KD value of a variant when compared to the parent P114AR7P95-A3.

Row | Binder | Kd [nM] | Fold Change of KD vs parent [fold] | koff [s⁻¹] | kon [M⁻¹ s⁻¹] | binding result
10 | ECB15 (SEQ ID NO: 145) (designed binder, kept as two constructs; also called ECB15 without Met; not shown: C-terminal poly-histidine tag) LPAPKNLVVSEVTEDSARLSWDDPWAFYESFLIQYQESEKVGEAIVLTVPGSERSYDLTGLKPGTEYTVSIYGVHNVYKDTNMRGLPLSAIFTTAPAPAPAPAPLPAPKNLVVSRVTEDSARLSWTAPDAAFDSFWIRYFEFLGSGEAIVLTVPGSERSYDLTGLKPGTEYVVNIMGVKGGKISPPLSAIFTT | 0.4 |  |  |  | 
11 | A3 F36S (designed binder, In the context of ECB15; built as m66; not shown: C-terminal poly-histidine tag) LPAPKNLVVSEVTEDSARLSWDDPWAFYESFLIQYQESEKVGEAIVLTVPGSERSYDLTGLKPGTEYTVSIYGVHNVYKDTNMRGLPLSAIFTTAPAPAPAPAPLPAPKNLVVSRVTEDSARLSWTAPDAAFDSFWIRYSEFLGSGEAIVLTVPGSERSYDLTGLKPGTEYVVNIMGVKGGKISPPLSAIFTT | 27.2 | 68 | 0.00512 | 188000 | 
12 | A3 F38S (designed binder, In the context of ECB15; built as m66; not shown: C-terminal poly-histidine tag) LPAPKNLVVSEVTEDSARLSWDDPWAFYESFLIQYQESEKVGEAIVLTVPGSERSYDLTGLKPGTEYTVSIYGVHNVYKDTNMRGLPLSAIFTTAPAPAPAPAPLPAPKNLVVSRVTEDSARLSWTAPDAAFDSFWIRYFESLGSGEAIVLTVPGSERSYDLTGLKPGTEYVVNIMGVKGGKISPPLSAIFTT | 717 | 1790 | 0.0323 | 45100 | 
13 | A3 G40S (designed binder, In the context of ECB15; built as m66; not shown: C-terminal poly-histidine tag) LPAPKNLVVSEVTEDSARLSWDDPWAFYESFLIQYQESEKVGEAIVLTVPGSERSYDLTGLKPGTEYTVSIYGVHNVYKDTNMRGLPLSAIFTTAPAPAPAPAPLPAPKNLVVSRVTEDSARLSWTAPDAAFDSFWIRYFEFLSSGEAIVLTVPGSERSYDLTGLKPGTEYVVNIMGVKGGKISPPLSAIFTT | 1.7 | 4.25 | 0.00032 | 185000 | 
14 | A3 I79S (designed binder, In the context of ECB15; built as m66; not shown: C-terminal poly-histidine tag) LPAPKNLVVSEVTEDSARLSWDDPWAFYESFLIQYQESEKVGEAIVLTVPGSERSYDLTGLKPGTEYTVSIYGVHNVYKDTNMRGLPLSAIFTTAPAPAPAPAPLPAPKNLVVSRVTEDSARLSWTAPDAAFDSFWIRYFEFLGSGEAIVLTVPGSERSYDLTGLKPGTEYVVNIMGVKGGKSSPPLSAIFTT |  |  |  |  | no binding
15 | A3 K78S (designed binder, Tested in the context of bispecific ECB15; not shown: C-terminal poly-histidine tag) LPAPKNLVVSEVTEDSARLSWDDPWAFYESFLIQYQESEKVGEAIVLTVPGSERSYDLTGLKPGTEYTVSIYGVHNVYKDTNMRGLPLSAIFTTAPAPAPAPAPLPAPKNLVVSRVTEDSARLSWTAPDAAFDSFWIRYFEFLGSGEAIVLTVPGSERSYDLTGLKPGTEYVVNIMGVKGGSISPPLSAIFTT | 0.3 | 0.75 | 0.00015 | 440000 | 
16 | A3 L39S (designed binder, In the context of ECB15; built as m66; not shown: C-terminal poly-histidine tag) LPAPKNLVVSEVTEDSARLSWDDPWAFYESFLIQYQESEKVGEAIVLTVPGSERSYDLTGLKPGTEYTVSIYGVHNVYKDTNMRGLPLSAIFTTAPAPAPAPAPLPAPKNLVVSRVTEDSARLSWTAPDAAFDSFWIRYFEFSGSGEAIVLTVPGSERSYDLTGLKPGTEYVVNIMGVKGGKISPPLSAIFTT | 2.7 | 6.75 | 0.00127 | 475000 | 
17 | A3 M72S (designed binder, In the context of ECB15; built as m66; not shown: C-terminal poly-histidine tag) LPAPKNLVVSEVTEDSARLSWDDPWAFYESFLIQYQESEKVGEAIVLTVPGSERSYDLTGLKPGTEYTVSIYGVHNVYKDTNMRGLPLSAIFTTAPAPAPAPAPLPAPKNLVVSRVTEDSARLSWTAPDAAFDSFWIRYFEFLGSGEAIVLTVPGSERSYDLTGLKPGTEYVVNISGVKGGKISPPLSAIFTT |  |  |  |  | no binding
18 | A3 N70S (designed binder, In the context of ECB15; built as m66; not shown: C-terminal poly-histidine tag) LPAPKNLVVSEVTEDSARLSWDDPWAFYESFLIQYQESEKVGEAIVLTVPGSERSYDLTGLKPGTEYTVSIYGVHNVYKDTNMRGLPLSAIFTTAPAPAPAPAPLPAPKNLVVSRVTEDSARLSWTAPDAAFDSFWIRYFEFLGSGEAIVLTVPGSERSYDLTGLKPGTEYVVSIMGVKGGKISPPLSAIFTT | 5.9 | 14.8 | 0.00249 | 425000 | 
19 | A3 P81S (designed binder, In the context of ECB15; built as m66; not shown: C-terminal poly-histidine tag) LPAPKNLVVSEVTEDSARLSWDDPWAFYESFLIQYQESEKVGEAIVLTVPGSERSYDLTGLKPGTEYTVSIYGVHNVYKDTNMRGLPLSAIFTTAPAPAPAPAPLPAPKNLVVSRVTEDSARLSWTAPDAAFDSFWIRYFEFLGSGEAIVLTVPGSERSYDLTGLKPGTEYVVNIMGVKGGKISSPLSAIFTT | 1.7 | 4.25 | 0.000536 | 321000 | 
20 | A3 R34S (designed binder, In the context of ECB15; built as m66; not shown: C-terminal poly-histidine tag) LPAPKNLVVSEVTEDSARLSWDDPWAFYESFLIQYQESEKVGEAIVLTVPGSERSYDLTGLKPGTEYTVSIYGVHNVYKDTNMRGLPLSAIFTTAPAPAPAPAPLPAPKNLVVSRVTEDSARLSWTAPDAAFDSFWISYFEFLGSGEAIVLTVPGSERSYDLTGLKPGTEYVVNIMGVKGGKISPPLSAIFTT |  |  |  |  | no binding
21 | A3 V68S (designed binder, In the context of ECB15; built as m66; not shown: C-terminal poly-histidine tag) LPAPKNLVVSEVTEDSARLSWDDPWAFYESFLIQYQESEKVGEAIVLTVPGSERSYDLTGLKPGTEYTVSIYGVHNVYKDTNMRGLPLSAIFTTAPAPAPAPAPLPAPKNLVVSRVTEDSARLSWTAPDAAFDSFWIRYFEFLGSGEAIVLTVPGSERSYDLTGLKPGTEYSVNIMGVKGGKISPPLSAIFTT | 3.6 | 9 | 0.0012 | 329000 | 
22 | A3 W32S (designed binder, In the context of ECB15; built as m66; not shown: C-terminal poly-histidine tag) LPAPKNLVVSEVTEDSARLSWDDPWAFYESFLIQYQESEKVGEAIVLTVPGSERSYDLTGLKPGTEYTVSIYGVHNVYKDTNMRGLPLSAIFTTAPAPAPAPAPLPAPKNLVVSRVTEDSARLSWTAPDAAFDSFSIRYFEFLGSGEAIVLTVPGSERSYDLTGLKPGTEYVVNIMGVKGGKISPPLSAIFTT | 29.8 | 74.5 | 0.0086 | 289000 | 
